The values that follow come from IntAct's records for PubMed 29691401.

The labels stand for the following.
B1: "Lethal(3)malignant brain tumor-like protein 3" (Homo sapiens), Q96JM7 (parent)
chain: MTESASSTSGQEFDVFSVMDWKDGVGTLPGSDLKFRVNEFGALEVITDENEMENVKKATATTTWMVPTAQEAPTSPPSSRPVFPPAYWTSPPGCPTVFSEKTGMPFRLKDPVKVEGLQFCENCCQYGNVDECLSGGNYCSQNCARHIKDKDQKEERDVEEDNEEEDPKCSRKKKPKLSLKADTKEDGEERDDEMENKQDVRILRGSQRARRKRRGDSAVLKQGLPPKGKKAWCWASYLEEEKAVAVPAKLFKEHQSFPYNKNGFKVGMKLEGVDPEHQSVYCVLTVAEVCGYRIKLHFDGYSDCYDFWVNADALDIHPVGWCEKTGHKLHPPKGYKEEEFNWQTYLKTCKAQAAPKSLFENQNITVIPSGFRVGMKLEAVDKKNPSFICVATVTDMVDNRFLVHFDNWDESYDYWCEASSPHIHPVGWCKEHRRTLITPPGYPNVKHFSWDKYLEETNSLPAPARAFKVKPPHGFQKKMKLEVVDKRNPMFIRVATVADTDDHRVKVHFDGWNNCYDYWIDADSPDIHPVGWCSKTGHPLQPPLSPLELMEASEHGGCSTPGCKGIGHFKRARHLGPHSAANCPYSEINLNKDRIFPDRLSGEMPPASPSFPRNKRTDANESSSSPEIRDQHADDVKEDFEERTESEMRTSHEARGAREEPTVQQAQRRSAVFLSFKSPIPCLPLRWEQQSKLLPTVAGIPASKVSKWSTDEVSEFIQSLPGCEEHGKVFKDEQIDGEAFLLMTQTDIVKIMSIKLGPALKIFNSILMFKAAEKNSHNEL

Variants of B1 are the subject of the first assay. The settings on record: with dnmt1_human DNMT1, P26358.
Sequence of dnmt1_human DNMT1, P26358 (P26358 whole entry): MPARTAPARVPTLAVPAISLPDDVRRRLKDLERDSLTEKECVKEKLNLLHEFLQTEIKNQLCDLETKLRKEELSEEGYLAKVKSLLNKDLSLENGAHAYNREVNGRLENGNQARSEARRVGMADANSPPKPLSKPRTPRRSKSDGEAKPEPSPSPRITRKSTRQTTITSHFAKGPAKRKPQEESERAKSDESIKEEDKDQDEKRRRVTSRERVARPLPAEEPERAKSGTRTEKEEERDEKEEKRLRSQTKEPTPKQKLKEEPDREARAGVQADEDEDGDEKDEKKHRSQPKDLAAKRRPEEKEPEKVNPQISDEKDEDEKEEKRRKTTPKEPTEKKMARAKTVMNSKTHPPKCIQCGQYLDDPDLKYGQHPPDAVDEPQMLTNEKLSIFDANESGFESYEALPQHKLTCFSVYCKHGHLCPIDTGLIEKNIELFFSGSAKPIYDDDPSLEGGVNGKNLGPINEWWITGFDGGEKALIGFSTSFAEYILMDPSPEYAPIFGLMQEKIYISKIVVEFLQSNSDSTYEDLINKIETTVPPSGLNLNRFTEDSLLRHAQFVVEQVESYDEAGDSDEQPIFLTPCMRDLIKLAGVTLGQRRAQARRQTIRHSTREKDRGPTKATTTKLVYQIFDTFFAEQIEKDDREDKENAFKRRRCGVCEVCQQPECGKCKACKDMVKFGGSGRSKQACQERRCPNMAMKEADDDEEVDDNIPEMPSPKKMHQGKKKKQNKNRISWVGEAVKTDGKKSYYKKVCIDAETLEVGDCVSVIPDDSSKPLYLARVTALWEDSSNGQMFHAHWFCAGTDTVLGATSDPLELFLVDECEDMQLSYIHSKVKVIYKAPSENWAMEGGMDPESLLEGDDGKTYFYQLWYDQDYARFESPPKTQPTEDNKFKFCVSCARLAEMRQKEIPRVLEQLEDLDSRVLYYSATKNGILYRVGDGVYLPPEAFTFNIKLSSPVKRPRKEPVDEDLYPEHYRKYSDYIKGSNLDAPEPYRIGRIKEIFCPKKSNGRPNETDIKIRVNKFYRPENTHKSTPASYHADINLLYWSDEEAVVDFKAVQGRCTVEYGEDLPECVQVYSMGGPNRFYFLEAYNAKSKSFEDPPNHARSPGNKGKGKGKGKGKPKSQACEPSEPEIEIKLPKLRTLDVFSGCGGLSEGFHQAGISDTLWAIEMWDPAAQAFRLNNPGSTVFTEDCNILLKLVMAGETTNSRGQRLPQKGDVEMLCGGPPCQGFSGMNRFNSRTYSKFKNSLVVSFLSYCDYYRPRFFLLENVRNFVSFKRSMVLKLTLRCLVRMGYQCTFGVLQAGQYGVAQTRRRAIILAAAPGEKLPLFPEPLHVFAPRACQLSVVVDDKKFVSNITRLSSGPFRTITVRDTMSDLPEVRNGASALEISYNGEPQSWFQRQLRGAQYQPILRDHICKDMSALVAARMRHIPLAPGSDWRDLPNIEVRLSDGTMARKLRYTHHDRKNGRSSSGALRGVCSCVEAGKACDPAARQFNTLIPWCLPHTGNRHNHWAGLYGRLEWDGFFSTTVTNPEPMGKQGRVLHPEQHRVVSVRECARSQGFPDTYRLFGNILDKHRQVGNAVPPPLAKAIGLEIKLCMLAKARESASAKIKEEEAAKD
Take D381N: the “effect of a mutation on the interaction” value is “disrupting interaction strength”.

In a further assay the parent is B1. The settings on record: with dnmt1_human DNMT1, P26358. The source holds these as a separate data set.
Consider D381N, for which the “effect of a mutation on the interaction” value is “decreasing interaction strength”.
